Results reported in paper PMC12052392 (PLOS Pathogens, 2025).

T1: epitope SH-peptide (spanning residues D1139-D1153) (SARS-CoV-2 prototype, UniProt P0DTC2)
T1 chain: DPLQPELDSFKEELD

T2: GST-fused truncated S2 protein S2 (D1139-L1152) (SARS-CoV-2, MN908947.3)
T2 construct: not shown: GST, N-terminal, kept
T2 chain: DPLQPELDSFKEEL

T3: GST-fused truncated S2 protein S2 (D1139-E1150) (SARS-CoV-2, MN908947.3, UniProt P0DTC2)
T3 construct: not shown: GST, N-terminal, kept
T3 chain: DPLQPELDSFKE

T4: GST-fused truncated S2 protein S2 (P1140-D1153) (SARS-CoV-2, MN908947.3, UniProt P0DTC2)
T4 construct: not shown: GST, N-terminal, kept
T4 chain: PLQPELDSFKEELD

T5: GST-fused truncated S2 protein S2 (P1140-L1152) (SARS-CoV-2 prototype (MN908947.3), UniProt P0DTC2)
T5 construct: not shown: GST, N-terminal, kept
T5 chain: PLQPELDSFKEEL

T6: GST-fused truncated S2 protein S2 (L1141-L1152) (SARS-CoV-2 prototype (MN908947.3), UniProt P0DTC2)
T6 construct: not shown: GST, N-terminal, kept
T6 chain: LQPELDSFKEEL


Tests used:
[1] = molecular target: SARS-CoV-2 S2 (T1076-Q1208) antigen, trimeric S2 fusion-core-based antigen (SARS-CoV-2 prototype (MN908947.3), UniProt P0DTC2, biotin (Biotinylation Kit))
[2] = molecular target: S2 (T1076-Q1208) protein as coated in ELISA (devoid of the His tag) (SARS-CoV-2, MN908947.3, UniProt P0DTC2); assay: ELISA; […], room temperature; […]; details: both partners purified
[3] = molecular target: SARS-CoV-2 spike (S) protein, full-length, expressed on the surface of HEK-293T cells (SARS-CoV-2 prototype (MN908947.3), UniProt P0DTC2); assay: flow cytometry on cells; details: one partner purified
[4] = molecular target: T1, epitope SH-peptide (spanning residues …); assay: crystal structure; details: both partners purified
[5] = molecular target: SARS-CoV spike (S) protein expressed on HEK-293T cells (SARS-CoV, GenBank AY278554.2, UniProt P59594); assay: flow cytometry on cells; details: one partner purified
[6] = molecular target: PANG/GD spike (S) protein expressed on HEK-293T cells (Pangolin coronavirus Guangdong …, strain); assay: flow cytometry on cells; details: one partner purified
[7] = molecular target: WIV1 spike (S) protein expressed on HEK-293T cells (Bat SARS-like coronavirus WIV1 …, UniProt U5WI05, strain); assay: flow cytometry on cells; details: one partner purified
[8] = molecular target: HKU3 spike (S) protein expressed on HEK-293T cells (Bat SARS-like coronavirus HKU3, GenBank …, UniProt A0A7G6UAJ9, strain); assay: flow cytometry on cells; details: one partner purified
[9] = molecular target: T7, GST-fused truncated S2 protein S2 (T1076-H1159) (SARS-CoV-2 prototype (MN908947.3), UniProt P0DTC2); assay: far-Western, overlay or dot blot; details: both partners purified
T7 construct: not shown: GST, N-terminal, kept

[10] = molecular target: T2, GST-fused truncated S2 protein S2 …; assay: ELISA; […], room temperature; […]; details: both partners purified
[11] = molecular target: T3, GST-fused truncated S2 protein S2 …; assay: BLI; […]; 20 mM HEPES pH 7.4, 150 mM NaCl, 0.05% Tween-20; details: both partners purified
[12] = molecular target: T4, GST-fused truncated S2 protein S2 …; assay: as above; details: both partners purified
[13] = molecular target: T5, GST-fused truncated S2 protein S2 …; assay: as above; details: both partners purified
[14] = molecular target: T6, GST-fused truncated S2 protein S2 …; assay: as above; details: both partners purified

Row | Binder | binding result [1] | binding result [2] | binding result [3] | also measured
1 | H45 (VHH) VHH: QLQLVESGGGSVQSGGSLRLSCLATGRKLDDLVIKWFRQPPGKLREGVACISGSGRTIKYADSVKGRFIISNEYGKNTVYLQMNSLTPDDTAVYYCAAEQILCDRKWYPLGNDYYGQGTQVTVSS | binds |  |  | 
2 | nanobody H8 (VHH, not shown: His6, C-terminal, kept) VHH: QVQLVESGGGLVQTGGSLRLSCAVSRFTLDYGATGWFRQAPGKEREGVSCIGRDDGSTYYAESVKGRFTMSRDKAKNTVYLEMNSLKPEDTAVYYCAADYFARCAANLPNRYLYWGQGTQVTVSS |  | binds |  | 
3 | nanobody H68 (VHH, not shown: His6, C-terminal, kept) VHH: EVQVVESGGGLVQPGGSLRLSCVGSSFTLNAIGWFRQAPGKEREWVSCTTGDGSTNYPDSVKGRFTISRDNAKNTVYLQMNSLKPEDTAVYYCTAVRRCFLTTWTPINPYYGMHSWGKGTLVTVSS |  | binds | binds | 
4 | nanobody H177 (VHH, not shown: His6, C-terminal, kept) VHH: QVQLVESGGGRVPPGGSLRLSCVASGFYWDYFVISWFRQAPGKEREWVSCIRSATDSANYADFVKGRFTISRENGKSTVYLQMNSLTPEDTAVYRCAVAYGTSWCRNPADMNYWGKGTLVTVSS |  | binds | binds | 
5 | nanobody H58 (VHH, not shown: His6, C-terminal, kept) VHH: QLQLVESGGGLADDGGSLRLSCAASGFALRYWTVGWFRQAPGKEREGLACISRSGNITSYTDSAKGRFTISRDNAKNTVYLQMNSLKPEDTAVYYCTAVRRCFLTTWTPINPYYGMHSWGKGTLVTVSS |  | binds | binds | 
6 | H43 (VHH) VHH: EVQVVESGGDLVQAGASLRLSCAAPEPVFISSFGNKYAFGWFRQAPGKQRELVASISGIGNTNYADSVNGRFTISRDNAKNSVYLQMNSLKPEDTAVYYCTAVRRCFLTTWTPINPYYGMHSWGKGTLVTVSS | binds |  |  | 
7 | nanobody H180 (VHH, not shown: His6, C-terminal, kept) VHH: QVQLVESGGGLVQAGGSLKLSCAASGLRSDGTAIGWFRQAPGKEREWVSCIRRRDGGTYYADSVESRFTISRDVAKNTVHLQMNSLKPEDTAVYYCASRDDSWCTTRSYEYSYWGQGTPVTVSS |  | binds | binds | 
8 | nanobody H23 (VHH, not shown: His6, C-terminal, kept) VHH: EVQVVESGGGWVQAGGSRRLSCAASGFTLDSYAVGWFRQAPGKEREGVSCISGISSSGGTTNYVDSVKGRFTISRDNAKNTVYLQMNSLKPEDTAVYYCAAVRRCFLTTWTPINPYYGMHSWGKGTLVTVSS |  | binds |  | 
9 | nanobody H84 (VHH, not shown: His6, C-terminal, kept) VHH: QLQLVESGGGWVQAGGSLRLSCAASGFTLDSYAVGWFRQAPGKEREGVSCISGISSSGGTTNYVDSVKGRFTISRDNAKNTAELQMNSLKPEDTAVYYCTAVRRCFLTTWTPINPYYGMHSWGKGTLVTVSS |  | binds |  | 
10 | H184 (VHH) VHH: QLQLVESGGGLVQPGGSLTLSCTASVDYYALGWFRQTPEKQREGVSCIGISGQRTFYADSVKGRFNITRDNTRKTAFLQMKDLKPEDTGVYFCAAERGRTVDAMCLKARPDYWGQGTQVTVSS | binds |  |  | 
11 | nanobody H93 (VHH, not shown: His6, C-terminal, kept) VHH: QLQLVESGGGLVQPGGSLRLSCVVSGGTLDYHAIAWFRQAPGKVREGVLCISSSGGSTNWLEAVKGRFTISRDNAKNTVYLQMNSLKPEDTAVYYCAAVRRCFLTTWTPINPYYGMHSWGKGTLVTVSS |  | binds | binds | 
12 | nanobody H85 (VHH, not shown: His6, C-terminal, kept) VHH: QLQLVESGGGLVQAGGSLRLSCAASGSTISRHAMGWYRQAPGMQRELVASISSGGTTNYADSVKGRFTISRDSAKNMVYLHMTSLKPEDTAVYYCATKPVHMLTRRLHLGGCTYGMDYWGKGTLVTVSS |  | binds |  | 
13 | H27 (VHH) VHH: EVQVVESGGGLVQAGDSLTLSCVAVQGERFFSQYTVGWFRQAPGRERTLVATINYSRETYYSDSAKGRFTISRDNAKNTVYLQMNSLNPEDTATYYCAATRHARISTTITEDRYDYWGQGTQVTVSS | binds |  |  | 
14 | H6 (VHH) VHH: QVQLVESGGGLVEAGGSLRLSCTTSGGTLSPYTMGWFRQAPGKGREFVSGISCLGWHSYEGDSVKGRFTISRDNAKNTLYLQMNSLKPEDTAVYYCAASSGCSSTMIDADFTSWGQGTQVTVSS | binds |  |  | 
15 | nanobody H88 (VHH, not shown: His6, C-terminal, kept) VHH: QVQLVESGGGLLQPGGSLRLSCAASGFTLDNYAIGWFRQAPGKEREWVSCISVSDGRTYYADSVQGRFTTSRDNAKNTVYLHLNSLKPEDTAVYSCASRRGRWCTTRSYEYEYWGQGTQVTVSS |  | binds |  | 
16 | H36 (VHH) VHH: QVQLVESGGALVQPGGSLTLSCSGHGITLRHYTVGWFREAPGKRRQWISSIRSSDERTNYAASVKGRFIISRNDGENTVKLQLNDVGPEDMATYRCAAGADTIKVFSGWAADYMFWGQGTQVTVSS | binds |  |  | 
17 | H15 (VHH) VHH: QLQLVESGGALAQPGGSLTLSCAVRGATLDSYAIAWFREAPGEEREGVACIGGSEESTFMKYSLKDRVSLSTNRAEKMVYLHMNSLQPEDTAAYYCAASASGSRSVLAGCPSRTMGFWGKGTLVTVSS | binds |  |  | 
18 | H102 (VHH) VHH: QVQLVESGGGLVQPGGSLRLSCTGSGLSLEDYAIGWFRQAPGKDRNWVACIPHKREPLYRDYVRGRFTISRNNTANTVDLQMNSLKPEDTAVYYCTAVRRCFLTTWTPINPYYGMHSWGKGTLVTVSS | binds |  |  | 
19 | nanobody H145 (VHH, also called anti-SH nNb H145; not shown: His6, C-terminal, kept) VHH: QVQLVESGGGLVQTGGSLRLSCEASGSAFSSYAVNWYRQAPGKQREPVAAIGSFNTVYSDSVKGRFTISRDNAKNTVYLQMNSLKPEDTAVYICNARRGATNTWGQGTQVTVSS |  | binds | binds | binding result [4]: binds; binding result [5]: binds; binding result [6]: binds; binding result [7]: binds; binding result [8]: binds; binding result [9]: binds; EC50 [10]: 2 nM; binding result [11]: binds; binding result [12]: no binding (tested: 200 nM); binding result [13]: no binding (tested: 200 nM); binding result [14]: no binding (tested: 200 nM)
20 | H147 (VHH) VHH: QVQLVESGGAWVQPGGSLRLSCVASGFTLDYYAVGWFRQAPGKEREGVSCISRRGGESTNYASSVKGRFTISRDSVKNTVYLQMNSLKPEDTAVYYCAAVLRCFSTTWAPINPYYGMHSWGKGTLVTVSS | binds |  |  | 
21 | nanobody H49 (VHH, not shown: His6, C-terminal, kept) VHH: QLQLVESGGGSVQAGGSLRLACTTSGRTFNKYAMAWFRQPPGQEREFIASITWIGGSTYYANSAKGRFTISRDNAKNTAYLQMNSLKPDDTAVYQCQLRKGILSYWGQGTQVTVSS |  | binds | binds | 
